The target in the experiment is GST-BS69_(50-401) FW point mutant (F293A, W294A) (human) (UniProt Q15326). As to the kind of experiment: MST.
Sequence of GST-BS69_(50-401) FW point mutant (F293A, W294A) (human) (Q15326 50-401 F293A/W294A): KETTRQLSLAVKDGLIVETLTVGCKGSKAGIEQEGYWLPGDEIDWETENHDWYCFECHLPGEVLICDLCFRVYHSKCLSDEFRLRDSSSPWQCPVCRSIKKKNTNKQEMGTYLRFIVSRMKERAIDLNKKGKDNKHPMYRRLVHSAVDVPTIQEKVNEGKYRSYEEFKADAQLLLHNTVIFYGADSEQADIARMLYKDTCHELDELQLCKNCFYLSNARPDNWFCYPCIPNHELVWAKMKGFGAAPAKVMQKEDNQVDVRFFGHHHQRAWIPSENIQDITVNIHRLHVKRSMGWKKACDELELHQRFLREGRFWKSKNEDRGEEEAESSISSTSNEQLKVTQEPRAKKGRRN

As usually defined, the Kd is the free concentration of one partner at which half of the binding sites on the other are occupied at equilibrium, for simple one-to-one binding. Substance H3.3K36me3 peptide yielded a Kd of 277 µM.

For the origin of these results see paper PMC4363072.
